The target in test [1] is T1, human epidermal growth factor receptor 2 (HER2), on cells (human, UniProt P04626 23-1255).
T1 construct: whole, on cells; Target of the flow cytometry and imaging experiments (HEK 293 cells expressing HER2; SkBr3 cells); also called ErbB2; HER2 receptor
Briefly: flow cytometry on cells expressing HER2. A general note: A flow cytometer gives signals particle by particle.

Test [2] addresses T2, human HER3, on cells (human, UniProt P21860 20-1342).
T2 construct: whole, on cells; also called ErbB3
Briefly: flow cytometry on cells expressing HER3.

Test [3] addresses T3, HER2 and HER3 co-expressed on cells (HER2/3) (human, UniProt P04626 23-1255; P21860 20-1342).
T3 construct: whole, on cells; Dubca camel fibroblasts in the periplasmic ELISA screen; also called HER2/HER3
Briefly: flow cytometry on cells co-expressing HER2 and HER3.

The target of test [4] is T4, human HER3-His extracellular-domain protein (human, UniProt P21860 20-643).
T4 construct: extracellular domain; Bought protein; not shown: His tag
The test is described as follows: SPR, Biacore T200, both orientations. The protocol:
(§1) SPR binding assay—The affinity of Nbs to HER2 or HER3 was determined in two ways by using surface plasmon resonance (SPR) spectroscopy. SPR measurements were performed on a Biacore T200 instrument. In one layout, purified Nb38 (10 μg/ml) and Nb46 (20 μg/ml) were immobilized on a CM5 chip using an amine coupling kit (GE Healthcare, Chicago, IL). The analytes, human HER2-His or HER3-His extracellular-domain proteins (R&D systems, Minneapolis, MN) dissolved in PBST (PBS supplemented with 0.05% Tween-20 v/v), were flown at 30 μl/min, and the chip was regenerated using 2 mM NaOH. In a second layout, the purified human HER2-His or HER3-His extracellular-domain proteins, at 10 μg/ml, were immobilized on a CM5 chip). The analytes, NB46 and NB38 (and NB7 as a negative control), were flown at 30 μl/min in PBST, and the chip was regenerated using 20 mM glycine. Binding was allowed for 180 s and dissociation for 600 s. Curves were fitted using Biacore's evaluation software using a 1:1 ligand:analyte binding model to retrieve association rate constants (ka), dissociation rate constants (kd), and equilibrium dissociation constants (KD, a measurement of affinity).

Test [5] has as its target T5, human HER2-His extracellular-domain protein (human, UniProt P04626 23-652).
T5 construct: extracellular domain; Bought protein; also called recombinant HER2; not shown: His tag
The test is described as follows: SPR, Biacore T200; average of the two orientations. The protocol:
as §1
In general terms: SPR reads the build-up and loss of mass on a sensor chip optically.

In test [6] the target is T1, human epidermal growth factor receptor …. The test is described as follows: flow cytometry titration on SkBr3 HER2+ breast cancer cells. How it is done: (§2) FIGS. 6A-6D. Nb46 binding to HER2 cell-receptors by FACS analysis. […] The fluorescent signal was subtracted from that of cells incubated with the antibody alone and normalized relative to the highest signal (FIG. 6B), n=3. FIG. 6C—Affinity binding of NB46 with SkBr3 cells conducted with and without 1.8 mM Neuregulin-1 (NRG) following 1 hour incubation. Data was fitted with a sigmoidal curve in Excel (dashed lines), n=3.
(§3) Nb46 binding of HER2+ cancer cells—SkBr3 cells were grown to 70-90% confluency in T-75 flasks overnight. The cells were detached by aspirating the medium and washing cells with 10 mL hot PBS before pipetting 5 mL of non-enzymatic cell dissociation solution (Biological Industries, Beit Haemek, Israel) and incubating for 5 minutes at 37° C. […] The cells were Incubated for 1 h at 4° C. on a tubes rotator after which the cells were washed off of unbound Nb; cells were centrifuged at 350 g for 5 minutes, supernatant discarded, and cells resuspend in 900 μL of PBS-FBS, repeatedly for 3 times. After the 3rd centrifugation, the cells were resuspended in 300 μL PBS-FBS containing iFluor488-conjugated anti-camelid VHH (1:1000, Genescript, NJ, USA), and incubated for additional 1 h at 4° C. on a tubes rotator, in the dark. […]

Test [7] addresses T5, human HER2-His extracellular-domain …. The test is described as follows: SPR, Biacore T200; HER2 immobilized (ligand), Nb46 as analyte. How it is done: as §1
The target is the same in test [8]. The test is described as follows: SPR, Biacore T200; Nb46 immobilized (ligand), HER2 as analyte. The protocol: as §1
Test [9] has the same target. Briefly: SPR, Biacore T200; average of the two orientations; average of the two orientations. How it is done:
as §1

Test [10] has as its target T1, human epidermal growth factor receptor …. Briefly: flow cytometry on HEK 293 cells expressing HER2, anti-VHH-488 detection, n=3. How it is done: as §2
The target in test [11] is T2, human HER3, on cells. The test is described as follows: flow cytometry on HEK 293 cells expressing HER3, anti-VHH-488 detection, n=3.
Test [12] has as its target T1, human epidermal growth factor receptor …. Briefly: flow cytometry on SkBr3 cells without Neuregulin-1, anti-VHH-488 detection, n=3. How it is done:
as §2, §3

The target in test [13] is T5, human HER2-His extracellular-domain …. The test is described as follows: SPR, Biacore T200; HER2-His ECD immobilized, Nb46 as analyte; HER2 immobilized, Nb46 as analyte. The protocol: as §1
Test [14] shares this target. The test is described as follows: SPR, Biacore T200; Nb46 immobilized, HER2-His ECD as analyte; Nb46 immobilized, HER2 as analyte. The protocol:
as §1

The target in test [15] is T3, HER2 and HER3 co-expressed on cells …. The test is described as follows: flow cytometry on HEK 293 cells expressing HER2 and HER3, anti-VHH-488 detection, n=3. The protocol: as §2
Test [16] has as its target T1, human epidermal growth factor receptor …. The test is described as follows: flow cytometry on HEK 293 cells expressing HER2, anti-VHH-488 detection, signal normalised to the highest signal, n=3. How it is done: as §2
For test [17] the target is unchanged. The test is described as follows: flow cytometry on SkBr3 cells in the presence of Neuregulin-1 (NRG; the legend prints 1.8 mM), anti-VHH-488 detection, n=3. How it is done:
as §2, §3

The target of test [18] is T3, HER2 and HER3 co-expressed on cells …. Briefly: flow cytometry on HEK 293 cells expressing HER2 and HER3, anti-VHH-488 detection, signal normalised to the highest signal, n=3. How it is done:
as §2

The target of test [19] is T1, human epidermal growth factor receptor …. The test is described as follows: flow cytometry on SkBr3 cells, Nb46-AF647 detected with secondary anti-VHH-488 antibody. The protocol: as §2, §3

Experimental findings from patent US20250206843A1 (NATIONAL INSTITUTE FOR BIOTECHNOLOGY IN THE NEGEV, published 2025) are described below.

T2 sequence (P21860 20-1342): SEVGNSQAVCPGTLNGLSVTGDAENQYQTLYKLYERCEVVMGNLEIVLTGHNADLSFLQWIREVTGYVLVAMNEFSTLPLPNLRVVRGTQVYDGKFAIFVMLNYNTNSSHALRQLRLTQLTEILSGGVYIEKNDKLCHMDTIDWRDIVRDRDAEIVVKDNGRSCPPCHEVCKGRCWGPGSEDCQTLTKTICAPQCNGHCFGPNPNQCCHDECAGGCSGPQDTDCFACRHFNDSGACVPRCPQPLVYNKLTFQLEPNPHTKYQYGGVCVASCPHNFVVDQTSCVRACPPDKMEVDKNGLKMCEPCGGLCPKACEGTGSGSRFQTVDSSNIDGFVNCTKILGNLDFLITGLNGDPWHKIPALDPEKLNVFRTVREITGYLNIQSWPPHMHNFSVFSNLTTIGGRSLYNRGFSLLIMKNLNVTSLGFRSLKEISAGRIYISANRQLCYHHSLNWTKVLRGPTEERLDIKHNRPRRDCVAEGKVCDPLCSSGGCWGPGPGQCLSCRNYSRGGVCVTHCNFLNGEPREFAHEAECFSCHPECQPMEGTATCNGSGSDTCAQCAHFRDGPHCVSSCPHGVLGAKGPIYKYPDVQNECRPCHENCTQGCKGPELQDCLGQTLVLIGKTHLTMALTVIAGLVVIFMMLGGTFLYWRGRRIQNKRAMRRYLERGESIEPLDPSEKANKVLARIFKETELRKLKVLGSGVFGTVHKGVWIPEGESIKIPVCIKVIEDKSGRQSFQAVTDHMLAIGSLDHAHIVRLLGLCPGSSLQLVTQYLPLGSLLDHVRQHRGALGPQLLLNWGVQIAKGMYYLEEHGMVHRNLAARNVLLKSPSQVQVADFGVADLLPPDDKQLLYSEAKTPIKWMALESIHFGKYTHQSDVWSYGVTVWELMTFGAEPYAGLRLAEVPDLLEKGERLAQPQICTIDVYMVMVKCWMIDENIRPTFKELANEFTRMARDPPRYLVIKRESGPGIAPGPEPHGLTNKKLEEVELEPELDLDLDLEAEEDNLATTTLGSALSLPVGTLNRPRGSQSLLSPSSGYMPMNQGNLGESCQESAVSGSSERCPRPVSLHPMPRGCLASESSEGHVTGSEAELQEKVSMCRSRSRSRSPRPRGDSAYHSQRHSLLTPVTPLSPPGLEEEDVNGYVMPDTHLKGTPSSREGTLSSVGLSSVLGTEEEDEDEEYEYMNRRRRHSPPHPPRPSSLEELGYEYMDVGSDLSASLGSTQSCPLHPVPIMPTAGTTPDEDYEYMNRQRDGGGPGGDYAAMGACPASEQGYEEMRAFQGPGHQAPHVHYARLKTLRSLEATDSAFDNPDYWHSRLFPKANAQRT
T4 sequence (P21860 20-643): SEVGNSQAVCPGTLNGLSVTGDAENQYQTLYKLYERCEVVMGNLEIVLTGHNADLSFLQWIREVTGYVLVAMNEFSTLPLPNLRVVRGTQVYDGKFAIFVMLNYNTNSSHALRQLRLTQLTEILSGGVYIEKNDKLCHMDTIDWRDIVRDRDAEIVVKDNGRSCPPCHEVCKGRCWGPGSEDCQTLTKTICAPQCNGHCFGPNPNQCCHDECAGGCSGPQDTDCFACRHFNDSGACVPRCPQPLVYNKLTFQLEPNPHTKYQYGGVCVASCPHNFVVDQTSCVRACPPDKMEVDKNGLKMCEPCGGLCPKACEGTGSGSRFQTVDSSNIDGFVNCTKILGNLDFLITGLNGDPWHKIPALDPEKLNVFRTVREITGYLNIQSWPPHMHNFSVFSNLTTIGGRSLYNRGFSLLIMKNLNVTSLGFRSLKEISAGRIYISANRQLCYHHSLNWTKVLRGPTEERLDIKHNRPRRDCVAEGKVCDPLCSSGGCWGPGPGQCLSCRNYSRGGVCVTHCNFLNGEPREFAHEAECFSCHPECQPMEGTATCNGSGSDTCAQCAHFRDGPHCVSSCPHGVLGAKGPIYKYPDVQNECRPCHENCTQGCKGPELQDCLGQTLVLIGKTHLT

B1: Nb38 (VHH)
VHH: QVQLQESGGGSVQAGGSLKLSCVASGFTRSMGWARQAPGKEREGVVCINNYNIGSGKWYADSVKGRFTISRDNDKNTVSLQMNSLKPEDTAIYYCAASPLYLCDNSSWFAAGFAAGSHVWGQGTQVTVSS
notes: Camel VHH expressed from pMECS (C-terminal HA and 6xHis tags) and purified on Ni-NTA; also called N38
As to B1, the binding result in test [1] is “no binding”; in the test with human HER3, on cells [2] it was “no binding”; in test [3], “no binding”.

B2: Nb46 (VHH)
VHH: QVQLQESGGGSVQAGGSLRLSCVVSGYFYYDHYYVAWFRQAPGKEREGVALINGRDSDTYYADSVKGRFTISQDSAKNTVYLQMNSLKPEDTAIYYCAANPGEAFTVLPPRVFRNWGQGTQVTVSS
notes: also called N46
The term koff denotes the rate constant with which the complex falls apart. A word on the kon: it is the rate constant with which the complex forms. The term Kd denotes the free concentration of one partner at which half of the binding sites on the other are occupied at equilibrium, for simple one-to-one binding. Lower therefore signals a tighter complex. In general, EC50 (read off the curve) refers to the concentration at which the effect is half-maximal. As to B2, the binding result in test [4] is listed as “no binding”; with human HER3, on cells [11], “no binding (tested: 25 nM)”. Also, the off-rate constant (koff) was determined as 0.00187 s⁻¹ in test [5], 0.00154 s⁻¹ in [7] and 0.00221 s⁻¹ in test [8]. Besides, the kon is 9.42e+06 M⁻¹ s⁻¹ in [5], 6.26e+06 M⁻¹ s⁻¹ in test [7] and 1.26e+07 M⁻¹ s⁻¹ in test [8]. Moreover, the dissociation constant Kd worked out at 0.8 nM in test [6], 0.21 nM in [9], 0.24 nM in test [13] and 0.17 nM in test [14]. In addition, the “EC50 (read off the curve)” value in test [10] is around 0.8 nM; in test [12] it was around 0.9 nM; in test [15] it was around 0.9 nM; in [16] it was around 0.8 nM; in test [17], around 0.8 nM; in test [18], around 0.8 nM.

B3: Nb46-AF647 (VHH)
VHH: B2 VHH
modifications: Alexa Fluor 647 (NHS ester), approximately 1 mole dye/mole NB; labelled residue not stated
notes: also called N46-Af647
For the molecule B3, the binding result in test [19] is listed as “binds”.
